In patent publication US20110143963A1:

B1: circularly permutated PDZ domain (designed binder)
chain: PELGFSISGGVGGRGNPFRPDDDGIFVTRVQPEGPASKLLQPGDKIIQANGYSFINIEHGQAVSLLKTFQNTVELIIVREVGNGAKQEIRVRVEKD
B2: enhanced PDZ-a (designed binder)
chain: MKHHHHHHHHHHSSDYKDDDDKGENLYFQGSPELGFSISGGVGGRGNPFRPDDDGIFVTRVQPEGPASKLLQPGDKIIQANGYSFINIEHGQAVSLLKTFQNTVELIIVREVGNGAKQEIRVRVEKDGGSGGVSSVPTNLEVVAATPTSLLISWDASYYGVSYYRITYGETGGNSPVQEFTVPYSSSTATISGLKPGVDYTITVYAYSDYYGSHHYSPISINYRT
B3: enhanced PDZ-b (designed binder)
chain: MKHHHHHHHHHHSSDYKDDDDKGENLYFQGSPELGFSISGGVGGRGNPFRPDDDGIFVTRVQPEGPASKLLQPGDKIIQANGYSFINIEHGQAVSLLKTFQNTVELIIVREVGNGAKQEIRVRVEKDGGSGGVSSVPTNLEVVAATPTSLLISWDAYYDSHVSYYRITYGETGGNSPVQEFTVPGSKSTATISGLKPGVDYTITVYAHYNYHYYSSPISINYRT
B4: ePDZ-b1 (designed binder)
chain: MKHHHHHHHHHHSSDYKDDDDKGENLYFQGSPELGFSISGGVGGRGNPFRPDDDGIFVTRVQPEGPASKLLQPGDKIIQANGYSFINIEHGQAVSLLKTFQNTVELIIVREVGNGAKQEIRVRVEKDGGSGGVSSVPTNLEVVAATPTSLLISWDAYRELPVSYYRITYGETGGNSPVQEFTVPGSKSTATISGLKPGVDYTITVYAHYNYHYYSSPISINYRT

Tests used:
[1] = molecular target: SUMO-ARVCF fusion protein (yeast); assay: SPR, equilibrium mode, target peptide fused to yeast SUMO
[2] = molecular target: SH2 domain of human Grb2 (human), P62993; assay: panel E, competition phage ELISA: wtSH2 (Grb2-SH2) phages incubated with free pY1208 peptide (0 to about 2200 nM), phages not bound to the free peptide captured and detected
[3] = molecular target: δ-catenin peptide PASPDSWV-COOH; assay: SPR (BIAcore)
[4] = molecular target: ARVCF peptide PQPVDSWV-COOH (eight-residue motif corresponding to the ARVCF C-terminus); assay: SPR (BIAcore)
[5] = molecular target: δ-catenin peptide PASPDSWV-COOH; assay: SPR (BIAcore), column δ-Catenin; number at the left of panel F (on rate per paragraph 112), unit from the column head of Table 4
[6] = molecular target: δ-catenin peptide PASPDSWV-COOH; assay: SPR, ratio of Kd
[7] = molecular target: ARVCF peptide PQPVDSWV-COOH (eight-residue motif corresponding to the ARVCF C-terminus); assay: SPR, ratio of Kd
[8] = molecular target: δ-catenin peptide PASPDSWV-COOH; assay: SPR (BIAcore), column δ-Catenin; number at the right of panel F (off rate per paragraph 112), unit from the column head of Table 4
[9] = molecular target: ARVCF peptide PQPVDSWV-COOH (eight-residue motif corresponding to the ARVCF C-terminus); assay: IC50 for the ARVCF peptide; method not stated with the table
[10] = molecular target: δ-catenin peptide PASPDSWV-COOH; assay: SPR
[11] = molecular target: ARVCF peptide PQPVDSWV-COOH (eight-residue motif corresponding to the ARVCF C-terminus); assay: SPR
[12] = molecular target: δ-catenin peptide PASPDSWV-COOH; assay: SPR (BIAcore); SPR, soluble ePDZ-b; only a lower bound on Kd (very weak binding); same conditions as the other rows
[13] = molecular target: δ-catenin peptide PASPDSWV-COOH; assay: SPR, ratio of Kd; ratio Kd(δ-catenin)/Kd(ARVCF) derived from the same SPR values, not a separate measurement
[14] = molecular target: ARVCF peptide with Ala substitution at position -4; assay: SPR, Ala scan of the ARVCF peptide

SH2 domain of human Grb2 (human), P62993, sequence (P62993 56-153 limits assumed): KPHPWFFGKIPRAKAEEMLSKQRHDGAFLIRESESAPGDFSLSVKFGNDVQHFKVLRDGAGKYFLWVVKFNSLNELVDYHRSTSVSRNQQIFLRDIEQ

Row | Binder | Kd [4] [nM] | Specificity Index (Kd for δ-catenin / Kd for ARVCF) [6] [fold] | Affinity Enhancement (Kd of cpPDZFN for ARVCF / Kd of the clamp) [7] [fold] | IC50 [9] [nM] | Kd [11] [nM] | koff [11] [s⁻¹] | kon [11] [M⁻¹ s⁻¹] | other results
1 | B1 |  |  |  |  |  |  |  | Kd [1]: 11000 nM
2 | NEPLYLNTFANTC (modifications not checked) [peptide corresponding to residues 1204-1216 of ErbB4 receptor (pY1208)] |  |  |  |  |  |  |  | IC50 [2]: 120 nM
3 | B2 | 56 | 8 | 520 | 40 | 56 | 0.015 | 290000 | Kd [3]: 430 nM; kon [5]: 250000 M⁻¹ s⁻¹; koff [8]: 0.11 s⁻¹; Kd [10]: 429 nM
4 | B3 | 56 |  | 520 | 59 | 56 | 0.011 | 190000 | Kd [12]: > 10000 nM; Specificity Index (Kd for δ-catenin / Kd for ARVCF) [13]: > 178 fold
5 | B4 |  | > 2000 | 4960 |  | 5 | < 0.00037 | 73000 | fold reduction in affinity against the wild-type ARVCF peptide [14]: > 200 fold
